# Assay results from publication PMC7382281 (Proceedings of the National Academy of Sciences of the …, 2020).
# Values joined by “and” are separate entries in the source; they are usually repeats but may differ in a detail not shown here. Identical values can stand only once. Like-named read-outs stand apart in the source and are kept apart here.
# Legend:
# [1] = molecular target: T1, AceI (Acinetobacter chlorhexidine efflux protein I) (Acinetobacter baumannii, UniProt P0DUT9); assay: native mass spectrometry of purified protein in detergent; type: binding
# T1 construct: amino acid residues 36 to 179, with a C-terminal hexahistidine tag
# [2] = molecular target: AceR (Acinetobacter chlorhexidine efflux protein regulator) (Acinetobacter baumannii, UniProt P0DUU5); assay: isothermal titration calorimetry (AceR^CTD); native MS titration (AceR^FL); type: binding
# Source text: isothermal titration calorimetry (AceR^CTD); native MS titration (AceR^FL) on AceR (Acinetobacter chlorhexidine efflux protein regulator) | we used isothermal titration calorimetry.
# [3] = molecular target: AceI (Acinetobacter chlorhexidine efflux protein I) (Acinetobacter baumannii, UniProt P0DUT9, E15Q); assay: native mass spectrometry of purified mutant; type: binding
# [4] = molecular target: AceI (Acinetobacter chlorhexidine efflux protein I), truncated form, residues 36 to 179 with a C-ter (A. baumannii); assay: native MS
# [5] = molecular target: AceI (Acinetobacter chlorhexidine efflux protein I), truncated form, residues 36 to 179, with C-term (A. baumannii); assay: native MS
# [6] = molecular target: BRIL (apocytochrome b562RIL)-fusion construct of full-length AceI (residues 1 to 179) (A. baumannii) (UniProt P0DUT9); assay: native MS
# [7] = molecular target: BRIL (apocytochrome b562RIL)-fusion construct of truncated AceI (residues 36 to 179) (A. baumannii); assay: native MS
# [8] = molecular target: BRIL (apocytochrome b562RIL)-fusion of full-length AceI (residues 1 to 179) (A. baumannii) (UniProt P0DUT9); assay: native MS
# [9] = molecular target: BRIL (apocytochrome b562RIL)-fusion of truncated AceI (residues 36 to 179) (A. baumannii); assay: native MS
# [10] = molecular target: E15Q AceI mutant (A. baumannii); assay: native MS
# [11] = molecular target: T2, AceRFL (BRIL-AceR full length) (Acinetobacter baumannii, UniProt P0DUU5 1-297); assay: native MS; no chlorhexidine; one RS2 per dimer; native MS; 200 mM ammonium acetate, pH 8.0 (AceRFL-DNA); temperature not stated; conditions: protein: recombinant; tags: N-terminal BRIL (apocytochrome b562RIL) fusion; 6xHis; chain copies: 2; blunt
# T2 sequence: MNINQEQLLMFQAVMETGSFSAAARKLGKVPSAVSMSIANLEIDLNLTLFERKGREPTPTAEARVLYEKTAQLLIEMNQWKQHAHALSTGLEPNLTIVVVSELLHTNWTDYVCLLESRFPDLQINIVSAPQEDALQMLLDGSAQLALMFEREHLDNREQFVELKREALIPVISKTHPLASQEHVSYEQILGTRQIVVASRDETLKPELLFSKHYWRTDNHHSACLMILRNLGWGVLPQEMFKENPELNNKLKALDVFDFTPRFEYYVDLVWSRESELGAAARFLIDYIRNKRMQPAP
# native MS [12] = molecular target: the molecule itself; assay: native MS
# native MS [13] = molecular target: the molecule itself; assay: native MS; remark: listed apart in the source
# [14] = molecular target: T2, AceRFL (BRIL-AceR full length); assay: native MS; 2 uM AceRFL, 2 uM RS1, no chlorhexidine; one RS1 per dimer; native MS; 200 mM ammonium acetate, pH 8.0 (AceRFL-DNA); temperature not stated; conditions: protein: recombinant; tags: N-terminal BRIL (apocytochrome b562RIL) fusion; 6xHis; chain copies: 2; blunt
# native MS [15] = molecular target: the molecule itself; assay: native MS; remark: listed apart in the source
molecule,measurement,setting,value
[H]/N=C(\N/C(=N/[H])NCCCCCCNC(=N)NC(=N)Nc1ccc(Cl)cc1)Nc1ccc(Cl)cc1 [chlorhexidine],native mass spectrometry of purified protein in detergent,[1],"when tested with chlorhexidine, we observed multiple low-occupancy binding of up to three chlorhexidine molecules"
same,Kd,[2],~16 µM
same,native mass spectrometry of purified mutant,[3],E15Q mutant and found that the binding of chlorhexidine also increased the dimer population of the mutant
"AceI (Acinetobacter chlorhexidine efflux protein I), truncated form, residues 36 to 179 with a C-ter (domain or fragment)",Kd,[4],5.69 µM
same,stoichiometry N,[4],2
"AceI (Acinetobacter chlorhexidine efflux protein I), truncated form, residues 36 to 179, with C-term (domain or fragment)",Kd,[5],0.92 µM
same,stoichiometry N,[5],2
BRIL (apocytochrome b562RIL)-fusion construct of full-length AceI (residues 1 to 179) (from UniProt P0DUT9 1-144) (natural protein),stoichiometry N,[6],2
BRIL (apocytochrome b562RIL)-fusion construct of truncated AceI (residues 36 to 179) (domain or fragment),stoichiometry N,[7],2
BRIL (apocytochrome b562RIL)-fusion of full-length AceI (residues 1 to 179) (from UniProt P0DUT9 1-144) (natural protein),stoichiometry N,[8],2
BRIL (apocytochrome b562RIL)-fusion of truncated AceI (residues 36 to 179) (domain or fragment),stoichiometry N,[9],2
E15Q AceI mutant (domain or fragment),Kd,[10],17.5 µM and 18.4 µM
"RS2 (site 2, 34 bp) (dsDNA) DNA 1: ACTCTTCAACAAGAACTAATTATAAGTAGACAGT DNA 2: ACTGTCTACTTATAATTAGTTCTTGTTGAAGAGT",binding result,[11],binds
"AceR^CTD: inducer-binding domain of AceR (amino acid residues 90 to 297) (domain or fragment, source: E. coli C43(DE3), purified (HisTrap-HP)) GLEPNLTIVVVSELLHTNWTDYVCLLESRFPDLQINIVSAPQEDALQMLLDGSAQLALMFEREHLDNREQFVELKREALIPVISKTHPLASQEHVSYEQILGTRQIVVASRDETLKPELLFSKHYWRTDNHHSACLMILRNLGWGVLPQEMFKENPELNNKLKALDVFDFTPRFEYYVDLVWSRESELGAAARFLIDYIRNKRMQPAP",stoichiometry N,native MS [12],2
AceR^CTD: inducer-binding domain of AceR (amino acid residues 90 to 297) (domain or fragment) GLEPNLTIVVVSELLHTNWTDYVCLLESRFPDLQINIVSAPQEDALQMLLDGSAQLALMFEREHLDNREQFVELKREALIPVISKTHPLASQEHVSYEQILGTRQIVVASRDETLKPELLFSKHYWRTDNHHSACLMILRNLGWGVLPQEMFKENPELNNKLKALDVFDFTPRFEYYVDLVWSRESELGAAARFLIDYIRNKRMQPAP,stoichiometry N,native MS [13],2
"RS1 (site 1, 22 bp) (dsDNA) DNA 1: TTTTTTAACTTTCTTGGACTAA DNA 2: TTAGTCCAAGAAAGTTAAAAAA",binding result,[14],binds
"AceR^FL: full-length AceR (Acinetobacter chlorhexidine efflux protein regulator) with a Bril fusion at the N terminus (natural protein, source: E. coli C43(DE3), purified (HisTrap-HP)) MNINQEQLLMFQAVMETGSFSAAARKLGKVPSAVSMSIANLEIDLNLTLFERKGREPTPTAEARVLYEKTAQLLIEMNQWKQHAHALSTGLEPNLTIVVVSELLHTNWTDYVCLLESRFPDLQINIVSAPQEDALQMLLDGSAQLALMFEREHLDNREQFVELKREALIPVISKTHPLASQEHVSYEQILGTRQIVVASRDETLKPELLFSKHYWRTDNHHSACLMILRNLGWGVLPQEMFKENPELNNKLKALDVFDFTPRFEYYVDLVWSRESELGAAARFLIDYIRNKRMQPAP",stoichiometry N,native MS [15],4
same,stoichiometry N,native MS [12],2 and 4
"AceR^FL: full-length AceR (Acinetobacter chlorhexidine efflux protein regulator) with a Bril fusion at the N terminus (natural protein, source: expressed in high yields, purified) MNINQEQLLMFQAVMETGSFSAAARKLGKVPSAVSMSIANLEIDLNLTLFERKGREPTPTAEARVLYEKTAQLLIEMNQWKQHAHALSTGLEPNLTIVVVSELLHTNWTDYVCLLESRFPDLQINIVSAPQEDALQMLLDGSAQLALMFEREHLDNREQFVELKREALIPVISKTHPLASQEHVSYEQILGTRQIVVASRDETLKPELLFSKHYWRTDNHHSACLMILRNLGWGVLPQEMFKENPELNNKLKALDVFDFTPRFEYYVDLVWSRESELGAAARFLIDYIRNKRMQPAP",stoichiometry N,native MS [13],2 and 4
